Key:
[1] = target: TRIM21 coiled-coil (CC235) (human) (UniProt P19474); experiment: SEC-MALS
[2] = target: TRIM21 coiled-coil (CC235) (human) (UniProt P19474); experiment: ITC
[3] = target: the molecule itself; experiment: SAXS

Row | Molecule | stoichiometry N [1] | Kd [2] | dH (dimer dissociation) [2] | stoichiometry N [3]
1 | TRIM21 coiled-coil (CC235) (from UniProt P19474 132-235) (domain or fragment) | 2 | 7 µM | 65 kcal/mol | –
2 | MBP-T21CC (MBPCC235) (domain or fragment, human, UniProt P19474 132-235, looked up) AQEYQEKLQVALGELRRKQELAEKLEVEIAIKRADWKKTVETQKSRIHAEFVQQKNFLVEEEQRQLQELEKDEREQLRILGEKEAKLAQQSQALQELISELDRR | – | – | – | 2

Source: paper doi:10.1101/2020.07.28.225359 (bioRxiv, 2020)
